According to the supplement of paper PMC9112550, “Optimization of the antimicrobial peptide Bac7 by deep mutational scanning” (BMC Biology, 2022):

System: Escherichia coli TOP10
Experiment: shrunken log2 fold change of peptide-encoding DNA abundance (4.5 h post-induction vs induction); higher = less antimicrobial activity (less host growth inhibition)
Settings: time post-induction: 4.5 h; library: site-saturation at positions 5, 18, 19, 20
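Also: peptides expressed intracellularly from a pBAD plasmid library in pooled LB shake-flask culture, induced with 0.3% L-arabinose, DNA abundance read by NGS, three biological replicates, DESeq2 with apeglm shrinkage.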

Q: How did the “shrunken log2 fold change” value turn out when RRIRQRPPRLPRPRPRPVMCPRP was run?
A: Its value is -0.119.

Q: RRIRTRPPRLPRPRPRPWKRPRP was tested. Which “shrunken log2 fold change” value did it give?
A: The value was 0.0299.

Q: How did the “shrunken log2 fold change” value turn out when RRIRKRPPRLPRPRPRPSMKPRP was run?
A: The value was -0.212.

Q: Which “shrunken log2 fold change” value does the source give for RRIRSRPPRLPRPRPRPTGYPRP here?
A: The value was 0.0189.

Q: With RRIRWRPPRLPRPRPRPMMVPRP as the sequence, how does the “shrunken log2 fold change” value read?
A: Its value is 0.0168.

Q: With RRIRSRPPRLPRPRPRPVIRPRP as the sequence, how does the “shrunken log2 fold change” value read?
A: The value was -0.213.

Q: Which “shrunken log2 fold change” value does the source give for RRIRCRPPRLPRPRPRPQAPPRP here?
A: The value was 0.211.

Q: For RRIRFRPPRLPRPRPRPSDAPRP, which “shrunken log2 fold change” value is on record?
A: The value was -0.00375.

Q: How did the “shrunken log2 fold change” value turn out when RRIRRRPPRLPRPRPRPADMPRP was run?
A: The value was -0.0139.

Q: With RRIRIRPPRLPRPRPRPWQCPRP as the sequence, how does the “shrunken log2 fold change” value read?
A: The value was 0.034.

Q: Which “shrunken log2 fold change” value does the source give for RRIRYRPPRLPRPRPRPLKAPRP here?
A: Its value is 0.141.

Q: Which “shrunken log2 fold change” value does the source give for RRIRMRPPRLPRPRPRPLKCPRP here?
A: Its value is -0.0167.

Q: RRIRLRPPRLPRPRPRPFRPPRP was tested. Which “shrunken log2 fold change” value did it give?
A: The value was 0.0752.

Q: Which “shrunken log2 fold change” value does the source give for RRIRWRPPRLPRPRPRPNRFPRP here?
A: Its value is -0.0274.

Q: With RRIRKRPPRLPRPRPRPRWDPRP as the sequence, how does the “shrunken log2 fold change” value read?
A: The value was 0.118.

Q: Which “shrunken log2 fold change” value does the source give for RRIRRRPPRLPRPRPRPKLTPRP here?
A: Its value is 0.0538.

Q: How did the “shrunken log2 fold change” value turn out when RRIRCRPPRLPRPRPRPTGVPRP was run?
A: Its value is 0.619.

Q: How did the “shrunken log2 fold change” value turn out when RRIRTRPPRLPRPRPRPMFRPRP was run?
A: The value was -0.193.

Q: With RRIRHRPPRLPRPRPRPSCNPRP as the sequence, how does the “shrunken log2 fold change” value read?
A: The value was -0.599.

Q: How did the “shrunken log2 fold change” value turn out when RRIRYRPPRLPRPRPRPPLCPRP was run?
A: The value was -0.173.

Q: With RRIRRRPPRLPRPRPRPGMDPRP as the sequence, how does the “shrunken log2 fold change” value read?
A: Its value is 0.0814.

Q: With RRIRFRPPRLPRPRPRPVPDPRP as the sequence, how does the “shrunken log2 fold change” value read?
A: Its value is -0.136.

Q: How did the “shrunken log2 fold change” value turn out when RRIRDRPPRLPRPRPRPPVNPRP was run?
A: Its value is 0.519.

Q: For RRIRARPPRLPRPRPRPPEMPRP, which “shrunken log2 fold change” value is on record?
A: The value was 0.515.

Q: How did the “shrunken log2 fold change” value turn out when RRIRHRPPRLPRPRPRPHFWPRP was run?
A: The value was -0.0607.

Q: With RRIRGRPPRLPRPRPRPCKLPRP as the sequence, how does the “shrunken log2 fold change” value read?
A: The value was -0.378.

Q: How did the “shrunken log2 fold change” value turn out when RRIRMRPPRLPRPRPRPVPAPRP was run?
A: The value was 1.11.

Q: RRIRARPPRLPRPRPRPMNWPRP was tested. Which “shrunken log2 fold change” value did it give?
A: The value was 0.351.

Q: Which “shrunken log2 fold change” value does the source give for RRIRVRPPRLPRPRPRPCAQPRP here?
A: The value was -0.186.

Q: For RRIRVRPPRLPRPRPRPIHMPRP, which “shrunken log2 fold change” value is on record?
A: The value was -0.0179.

Q: Which “shrunken log2 fold change” value does the source give for RRIRSRPPRLPRPRPRPCQDPRP here?
A: The value was -0.0622.

Q: RRIRTRPPRLPRPRPRPQTFPRP was tested. Which “shrunken log2 fold change” value did it give?
A: The value was -0.567.

Q: With RRIRIRPPRLPRPRPRPGQHPRP as the sequence, how does the “shrunken log2 fold change” value read?
A: The value was -0.0183.

Q: With RRIRQRPPRLPRPRPRPGTLPRP as the sequence, how does the “shrunken log2 fold change” value read?
A: The value was -0.0134.

Q: RRIRDRPPRLPRPRPRPCTRPRP was tested. Which “shrunken log2 fold change” value did it give?
A: Its value is 0.0736.

Q: How did the “shrunken log2 fold change” value turn out when RRIRMRPPRLPRPRPRPPFFPRP was run?
A: Its value is 0.528.

Q: For RRIRWRPPRLPRPRPRPLIFPRP, which “shrunken log2 fold change” value is on record?
A: The value was -0.215.

Q: Which “shrunken log2 fold change” value does the source give for RRIRWRPPRLPRPRPRPNMGPRP here?
A: The value was -0.0382.

Q: How did the “shrunken log2 fold change” value turn out when RRIRGRPPRLPRPRPRPPVQPRP was run?
A: The value was 0.496.

Q: Which “shrunken log2 fold change” value does the source give for RRIRDRPPRLPRPRPRPHERPRP here?
A: The value was 0.0603.

Q: How did the “shrunken log2 fold change” value turn out when RRIRTRPPRLPRPRPRPKKLPRP was run?
A: Its value is -0.298.

Q: How did the “shrunken log2 fold change” value turn out when RRIRERPPRLPRPRPRPKYCPRP was run?
A: The value was -0.368.

Q: How did the “shrunken log2 fold change” value turn out when RRIRWRPPRLPRPRPRPKFTPRP was run?
A: Its value is -0.119.

Q: With RRIRSRPPRLPRPRPRPHMTPRP as the sequence, how does the “shrunken log2 fold change” value read?
A: Its value is -0.384.

Q: For RRIRTRPPRLPRPRPRPREVPRP, which “shrunken log2 fold change” value is on record?
A: Its value is 0.442.

Q: RRIRARPPRLPRPRPRPCFDPRP was tested. Which “shrunken log2 fold change” value did it give?
A: The value was 0.191.

Q: With RRIRVRPPRLPRPRPRPCCMPRP as the sequence, how does the “shrunken log2 fold change” value read?
A: Its value is -0.181.

Q: RRIRPRPPRLPRPRPRPFPEPRP was tested. Which “shrunken log2 fold change” value did it give?
A: The value was 0.0208.

Q: How did the “shrunken log2 fold change” value turn out when RRIRDRPPRLPRPRPRPFSVPRP was run?
A: Its value is -0.0199.

Q: How did the “shrunken log2 fold change” value turn out when RRIRCRPPRLPRPRPRPNIGPRP was run?
A: Its value is -0.138.

Q: For RRIRYRPPRLPRPRPRPKMYPRP, which “shrunken log2 fold change” value is on record?
A: Its value is -1.46.

Q: For RRIRDRPPRLPRPRPRPERSPRP, which “shrunken log2 fold change” value is on record?
A: Its value is 0.239.

Q: With RRIRKRPPRLPRPRPRPPVEPRP as the sequence, how does the “shrunken log2 fold change” value read?
A: Its value is 0.13.

Q: RRIRFRPPRLPRPRPRPALDPRP was tested. Which “shrunken log2 fold change” value did it give?
A: Its value is 0.436.

Q: Which “shrunken log2 fold change” value does the source give for RRIRGRPPRLPRPRPRPYEPPRP here?
A: Its value is 0.0834.

Q: RRIRDRPPRLPRPRPRPGPKPRP was tested. Which “shrunken log2 fold change” value did it give?
A: Its value is 0.386.

Q: Which “shrunken log2 fold change” value does the source give for RRIRTRPPRLPRPRPRPPEIPRP here?
A: Its value is 0.0182.

Q: RRIRIRPPRLPRPRPRPACHPRP was tested. Which “shrunken log2 fold change” value did it give?
A: Its value is -0.12.

Q: Which “shrunken log2 fold change” value does the source give for RRIRTRPPRLPRPRPRPPEPPRP here?
A: The value was 0.416.

Q: For RRIRSRPPRLPRPRPRPKGCPRP, which “shrunken log2 fold change” value is on record?
A: Its value is 0.134.

Q: RRIRQRPPRLPRPRPRPHKAPRP was tested. Which “shrunken log2 fold change” value did it give?
A: Its value is -0.0398.

Q: How did the “shrunken log2 fold change” value turn out when RRIRTRPPRLPRPRPRPPGWPRP was run?
A: The value was 0.758.

Q: RRIRSRPPRLPRPRPRPTHCPRP was tested. Which “shrunken log2 fold change” value did it give?
A: The value was 0.36.

Q: RRIRWRPPRLPRPRPRPILIPRP was tested. Which “shrunken log2 fold change” value did it give?
A: The value was -0.037.

Q: How did the “shrunken log2 fold change” value turn out when RRIRRRPPRLPRPRPRPQFTPRP was run?
A: The value was -0.0485.

Q: Which “shrunken log2 fold change” value does the source give for RRIRMRPPRLPRPRPRPYNWPRP here?
A: Its value is -0.337.

Q: RRIRLRPPRLPRPRPRPSIGPRP was tested. Which “shrunken log2 fold change” value did it give?
A: Its value is -0.378.

Q: How did the “shrunken log2 fold change” value turn out when RRIRNRPPRLPRPRPRPQGGPRP was run?
A: The value was -0.28.

Q: How did the “shrunken log2 fold change” value turn out when RRIRYRPPRLPRPRPRPEANPRP was run?
A: Its value is -0.127.

Q: RRIRVRPPRLPRPRPRPRVQPRP was tested. Which “shrunken log2 fold change” value did it give?
A: The value was 0.328.

Q: How did the “shrunken log2 fold change” value turn out when RRIRYRPPRLPRPRPRPQFVPRP was run?
A: The value was 0.119.

Q: For RRIRPRPPRLPRPRPRPRNWPRP, which “shrunken log2 fold change” value is on record?
A: The value was 0.195.

Q: RRIRRRPPRLPRPRPRPYLWPRP was tested. Which “shrunken log2 fold change” value did it give?
A: The value was -0.439.

Q: How did the “shrunken log2 fold change” value turn out when RRIRTRPPRLPRPRPRPMHAPRP was run?
A: The value was -0.112.

Q: RRIRCRPPRLPRPRPRPRDNPRP was tested. Which “shrunken log2 fold change” value did it give?
A: The value was 2.6.
